In the supplement of paper PMC12764529:
± gives the half width of the 95% confidence interval.

Legend:
[1] = folding stability dG unfold from chymotrypsin proteolysis; higher = more stable
Outline: (§1)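 Designed mini-proteins (under 80 residues, no cysteine) in a PA-tagged cDNA display construct were digested with trypsin and chymotrypsin. Each protease was used at 11 concentrations (threefold dilutions) plus a no-protease condition, followed by sequencing. K50 was inferred by Bayesian fitting of sequencing counts, and unfolding free energy was derived against a sequence-predicted unfolded-state K50 and a shared folded-state K50, per protease or combined. Only designs with AlphaFold2 dimer inter-PAE above 15 were kept.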

[2] = folding stability dG unfold from trypsin proteolysis; higher = more stable
Outline: as §1

[3] = folding stability dG unfold (combined trypsin and chymotrypsin); higher = more stable
Outline: as §1

Sequence | folding stability dG unfold [1] | folding stability dG unfold [2] | folding stability dG unfold [3]
SEWVKVKVEIKMPFYNGNKPMPMSIEVEYEVPPNDPGMTPEDLPPEELAKEAIEKAYDYMRKLGLPPDMFSA [r9_516_TrROS] | 2.97 ± 0.12 kcal/mol | 2.21 ± 0.19 kcal/mol | 2.74 ± 0.39 kcal/mol
SEWVSFMFPFKFEPDDGKIRIKIKMKAPDGEPLGEHEHPVRRDGDKVEVMQMITFPLPKGAQLDKIEIEPSA [r9_292_TrROS] | 1.11 ± 0.34 kcal/mol | 0.778 ± 0.26 kcal/mol | 0.922 ± 0.24 kcal/mol
SFFVEFGIEHNPENNYIHINFRIYEPDPNGQWRPSSSIPITIPIKIPPPPVPKIEVPEGAKDPEDAADALSA [r9_888_TrROS] | 4.43 ± 0.3 kcal/mol | 2.92 ± 0.2 kcal/mol | 3.75 ± 0.68 kcal/mol
SFLSPGDKFKFPNGNNYRIENFDISYDPGNNNPMIEIELVPLPPPKPEDENKKDPDGKTKTENKYKYKGPSA [r9_914_TrROS] | 0.879 ± 0.5 kcal/mol | 0.61 ± 0.28 kcal/mol | 0.968 ± 0.45 kcal/mol
SGGMEKTENGNVRPVPLPTTVVKETPPEVSPEEAKERVEKELKEKGYKNVKVTTSYDPSTNLVTITVTVESA [r9_1124_JUSTAS] | 0.624 ± 0.076 kcal/mol | 0.447 ± 0.071 kcal/mol | 0.564 ± 0.09 kcal/mol
SGIGEMSPEEIAKRLAEELGLSGIEVSVSTEGNTLTIPVKAKDPVKNEEITITITITPENGGKIKITTAGSA [r9_1042_JUSTAS] | 0.299 ± 0.057 kcal/mol | 0.397 ± 0.12 kcal/mol | 0.444 ± 0.21 kcal/mol
SGITPEQIEELAREIADLFPDVEIEIYPGLEPSIFDGPGAVAVIEREEGRGYITIYFPETGEPLVIEVPDSA [r9_1062_TrMRF] | 1.3 ± 0.033 kcal/mol | 1.5 ± 0.079 kcal/mol | 1.37 ± 0.2 kcal/mol
SGKKIEIVKKILEELGIPIVKIEEVTPDRIVVEVEEGRRISIAIKPDDPDVVLIDPKPTEDGGWSSDLPDSA [r9_809_TrMRF] | 0.939 ± 0.042 kcal/mol | 1.26 ± 0.038 kcal/mol | 1.06 ± 0.12 kcal/mol
SGMEQKVEVLRVGAPGEEAVTRFTFKFEDKEFTLEASARLPDGSLVLLDFHVYRDPEGTFRVDVVVYPGFSA [r9_255_TrMRF] | 3.27 ± 0.043 kcal/mol | 2.01 ± 0.069 kcal/mol | 2.93 ± 0.1 kcal/mol
SGMLAPDATVTTTEIVFEKDPKTGLYYLTVKEKTVTVKPDSSGRLVLTTSPVTITDLGPLTPEEAEKLLSSA [r9_423_JUSTAS] | 2.73 ± 0.031 kcal/mol | 2.16 ± 0.052 kcal/mol | 2.51 ± 0.085 kcal/mol
SGMLLTVATKTEESELPDGGKKKVTTTTVELSGPHSVTYTPVTTLAPDGTVPASTTTVYDTVSGETTTAPSA [r9_641_JUSTAS] | -0.2 ± 0.058 kcal/mol | 0.259 ± 0.032 kcal/mol | 0.145 ± 0.074 kcal/mol
SGMMNNTTITVTDSEPLPDGSVLTNALTFTSSSAGISSPLDLSLSKTPVSSSTTYTNNGVAPASISLNSLSA [r9_1113_JUSTAS] | 0.611 ± 0.075 kcal/mol | 0.678 ± 0.019 kcal/mol | 0.697 ± 0.049 kcal/mol
SGMPTLEIEIEFPEVKGETPVPGTDRTLIDTPMKITVTKIENGPPETVEVELPPKLWTEEIEERIKKILGSA [r9_656_JUSTAS] | 1.2 ± 0.27 kcal/mol | -0.248 ± 0.66 kcal/mol | 0.485 ± 0.47 kcal/mol
SGMTSSFEVSPVGDILVVTVSLHFPGLGLSSTASATQDPSSDSMSLDLTIPFPPEDLAPLSLSLSLKPPESA [r9_887_JUSTAS] | 3.62 ± 0.27 kcal/mol | 2.61 ± 0.12 kcal/mol | 2.87 ± 0.23 kcal/mol
SGPGPEKIKEIIKKLFPNLKIESIEEDPATGKYTIKFPNGYTVEVEVPPDGTVTLTVKTPNSTTTFTVPESA [r9_304_JUSTAS] | 2.32 ± 0.031 kcal/mol | 2.15 ± 0.086 kcal/mol | 2.26 ± 0.063 kcal/mol
SGPTSTVDPEFPGSTPGGTVTPSVVRVPVPPDEVERVIEEIRERAGVPGLKVERVERTADGVVLIEVSLPSA [r9_1101_JUSTAS] | 1.15 ± 0.015 kcal/mol | 0.36 ± 0.029 kcal/mol | 0.882 ± 0.066 kcal/mol
SGPVPLPVEVTFEPNSETTVTLPSGRTYTVPTPPNGSATATADPATGVVTITVTSGSSTTTLTFPVPAELSA [r9_226_JUSTAS] | 0.712 ± 0.033 kcal/mol | 0.361 ± 0.006 kcal/mol | 0.592 ± 0.051 kcal/mol
